Experimental data published in patent US20030100068A1.

Target: RANK (Receptor Activator of NF-kappa B) on primary murine osteoblasts (murine (primary murine osteoblasts)) (UniProt O35305)
Assay: cell-based or functional assay

Sequence of UniProt O35305 (O35305 31-625): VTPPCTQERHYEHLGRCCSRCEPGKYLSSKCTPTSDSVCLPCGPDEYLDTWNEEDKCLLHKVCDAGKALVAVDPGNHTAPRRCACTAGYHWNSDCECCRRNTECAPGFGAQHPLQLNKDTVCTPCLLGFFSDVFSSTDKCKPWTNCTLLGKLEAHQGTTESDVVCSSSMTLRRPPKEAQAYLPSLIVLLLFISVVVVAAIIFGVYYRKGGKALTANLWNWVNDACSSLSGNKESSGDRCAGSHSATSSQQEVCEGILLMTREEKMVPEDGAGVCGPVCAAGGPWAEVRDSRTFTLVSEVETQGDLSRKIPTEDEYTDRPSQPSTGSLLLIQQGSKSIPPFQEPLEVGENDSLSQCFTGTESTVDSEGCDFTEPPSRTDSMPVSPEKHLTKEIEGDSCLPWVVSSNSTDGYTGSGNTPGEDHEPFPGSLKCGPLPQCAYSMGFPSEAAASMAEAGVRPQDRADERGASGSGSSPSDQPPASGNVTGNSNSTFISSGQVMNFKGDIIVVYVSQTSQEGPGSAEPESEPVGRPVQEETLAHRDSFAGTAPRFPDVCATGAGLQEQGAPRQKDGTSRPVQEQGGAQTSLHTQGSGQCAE

GST-RANKL (fusion product of the external domain of RANKL and glutathione S-transferase) (from UniProt P08515) (ligand)
surface residence or internalization of RANK on primary osteoblasts exposed to 5 nM ligand (confocal microscopy, anti-RANK staining against membrane dye): > 1 h

cleaved RANKL (GST removed from GST-RANKL with human rhinovirus 3C protease) (ligand)
surface residence or internalization of RANK on primary osteoblasts exposed to 5 nM ligand (confocal microscopy, anti-RANK staining against membrane dye): < 1 h
